Target: 11th type II cohesin module of the primary scaffoldin ScaA1 of B. cellulosolvens (BcCohScaA1_(11)) (Bacteroides (Pseudobacteroides) cellulosolvens) (UniProt Q9FDJ9)
Assay: ITC; 308 K; Doc constructs in the cell titrated with 28 injections of 10 μl BcCohScaA1_(11); single-site model

UniProt Q9FDJ9, sequence (Q9FDJ9 entry or part of it): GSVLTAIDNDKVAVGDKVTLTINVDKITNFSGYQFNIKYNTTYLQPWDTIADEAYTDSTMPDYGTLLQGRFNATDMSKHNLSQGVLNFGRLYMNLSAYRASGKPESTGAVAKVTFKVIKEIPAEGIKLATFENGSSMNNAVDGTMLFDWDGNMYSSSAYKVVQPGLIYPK

Row | Substance | Ka [M⁻¹] | dH [kcal/mol] | stoichiometry N
1 | TrxA-BcDocCel48 mutant M1 (M17S/A18D) (domain or fragment) | 1.11e+07 | -16 | 0.98
2 | TrxA-BcDocCel48 mutant M1 + F60A (domain or fragment) | 58400 | -60.9 | 1.01
3 | TrxA-BcDocCel48 mutant M2 (M50S/A51D) (domain or fragment) | 1.41e+06 | -17.7 | 0.99
4 | TrxA-BcDocCel48 mutant M2 + F27A (domain or fragment) | 445000 | -13.2 | 1.01
5 | TrxA-BcDocCel48 mutant M21A/I54A (domain or fragment) | 1.2e+06 | -9.3 | 1
6 | TrxA-BcDocCel48 mutant N16A/N49A (domain or fragment) | 136000 | -14.1 | 0.99
7 | TrxA-BcDocCel48 mutant Q25A/Q58A (domain or fragment) | 1.35e+06 | -8.86 | 0.99
8 | Wild-type BcDocCel48 fused to TrxA (TrxA-BcDocCel48) (domain or fragment) | 3.31e+07 | -15.2 | 0.98
